From publication PMC5473857, “ZipA and FtsA* stabilize FtsZ-GDP miniring structures” (Scientific Reports, 2017)

B1: FtsZ from E. coli (wild type, unlabeled) (natural protein, UniProt P0A9A6 1-383, looked up)
chain: MFEPMELTNDAVIKVIGVGGGGGNAVEHMVRERIEGVEFFAVNTDAQALRKTAVGQTIQIGSGITKGLGAGANPEVGRNAADEDRDALRAALEGADMVFIAAGMGGGTGTGAAPVVAEVAKDLGILTVAVVTKPFNFEGKKRMAFAEQGITELSKHVDSLITIPNDKLLKVLGRGISLLDAFGAANDVLKGAVQGIAELITRPGLMNVDFADVRTVMSEMGYAMMGSGVASGEDRAEEAAEMAISSPLLEDIDLSGARGVLVNITAGFDLRLDEFETVGNTIRAFASDNATVVIGTSLDPDMNDELRVTVVATGIGMDKRPEITLVTNKQVQQPVMDRYQQHGMAPLTQEQKPVAKVVNDNAPQTAKEPDYLDIPAFLRKQAD
notes: Cell division protein FtsZ, E. coli; assembles into polymers with GTP, GDP or GMPCPP; also called FtsZ-GTP; FtsZ-GDP; source: over-expressed from plasmid pET11b, purified (30% saturated ammonium sulfate, source Q 10/10 column)

Legend:
[1] = biological target: the molecule itself; assay: negative-stain electron microscopy; FtsZ alone assembled with GTP; 5 uM FtsZ in HMK buffer pH 7.5 (50 mM HEPES, 100 mM KAc, 5 mM MgAc); also 5 and 10 uM FtsZ in MEK buffer pH 6.5 with 1 mM EDTA plus GTP, and 5 uM FtsZ in HMK with 0.5 mM GMPCPP; 2% uranyl acetate
[2] = biological target: B1; assay: Trp quenching of ATTO fluorescence; 1 part ATTO-655-labeled FtsZ T151C/Y222W mixed with 9 parts unlabeled wild-type FtsZ; MMK buffer pH 6.5; 25 °C; excitation 650 nm, emission 680 nm; assembly kinetics; conditions: both partners purified
[3] = biological target: the molecule itself; assay: negative-stain electron microscopy; FtsZ alone assembled with 0.5 mM GDP, HMK buffer pH 7.5; 5 uM (and 15 uM for E. coli FtsZ); 2% uranyl acetate

B1: binds [1].

B2: FtsZ T151C/Y222W labeled with ATTO-655-maleimide (natural protein, E. coli, UniProt P0A9A6 1-383, looked up)
chain: MFEPMELTNDAVIKVIGVGGGGGNAVEHMVRERIEGVEFFAVNTDAQALRKTAVGQTIQIGSGITKGLGAGANPEVGRNAADEDRDALRAALEGADMVFIAAGMGGGTGTGAAPVVAEVAKDLGILTVAVVTKPFNFEGKKRMAFAEQGICELSKHVDSLITIPNDKLLKVLGRGISLLDAFGAANDVLKGAVQGIAELITRPGLMNVDFADVRTVMSEMGWAMMGSGVASGEDRAEEAAEMAISSPLLEDIDLSGARGVLVNITAGFDLRLDEFETVGNTIRAFASDNATVVIGTSLDPDMNDELRVTVVATGIGMDKRPEITLVTNKQVQQPVMDRYQQHGMAPLTQEQKPVAKVVNDNAPQTAKEPDYLDIPAFLRKQAD
modifications: labeled with ATTO-655-maleimide
notes: Cell division protein FtsZ, E. coli, double mutant T151C/Y222W; Used diluted with a 9-fold excess of unlabeled wild-type FtsZ; also called FtsZY222W/T151C; labeled FtsZ; source: over-expressed from plasmid pET11b, purified (ammonium sulfate, source Q 10/10 column)
B2: binds [2].

B3: PaFtsZ (FtsZ from Pseudomonas aeruginosa), full length (natural protein, UniProt P47204 1-394, looked up)
chain: MFELVDNIAQTAVIKVIGVGGGGGNAVNHMAKNNVEGVEFICANTDAQALKNIAARTVLQLGPGVTKGLGAGANPEVGRQAALEDRERISEVLEGADMVFITTGMGGGTGTGAAPIIAEVAKEMGILTVAVVTRPFPFEGRKRMQIADEGIRALAESVDSLITIPNEKLLTILGKDASLLAAFAKADDVLAGAVRGISDIIKRPGMINVDFADVKTVMSEMGMAMMGTGCASGPNRAREATEAAIRNPLLEDVNLQGARGILVNITAGPDLSLGEYSDVGNIIEQFASEHATVKVGTVIDADMRDELHVTVVATGLGARLEKPVKVVDNTVQGSAAQAAAPAQREQQSVNYRDLDRPTVMRNQSHGSAATAAKLNPQDDLDYLDIPAFLRRQAD
notes: Cell division protein FtsZ, Pseudomonas aeruginosa; also called His6-PaFtsZ; source: expressed from pET15b (NdeI/BamHI), purified (Talon column, thrombin, source Q 10/10 column)
B3: binds [3].
